Experiments:
ISG15 (Mus musculus) = ISG15 (Mus musculus) (UniProt Q64339); experiment: microscale thermophoresis; details: cited from earlier work
[1] = molecular target: murine USP18^IBB-1-USP7, His6-tagged (mouse) (UniProt Q9WTV6)

Chain of ISG15 (Mus musculus) (Q64339 1-155): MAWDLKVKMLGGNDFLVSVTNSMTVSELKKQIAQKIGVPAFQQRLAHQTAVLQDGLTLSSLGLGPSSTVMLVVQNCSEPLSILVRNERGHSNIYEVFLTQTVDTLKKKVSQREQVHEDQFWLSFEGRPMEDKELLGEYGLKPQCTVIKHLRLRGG

catalytic activity towards ISG15-FP, percent of wild type (% of wt activity) [1] | Substance | Kd (ISG15 (Mus musculus)) [nM]
– | USP18 (from UniProt Q9WTV6) | 1300
0.5 | mouse ISG15 (residues 1-155, C76S) (from UniProt Q64339 1-155) (natural protein) | –

Source: paper PMC5405867
